B1: Zinc finger protein Aiolos (Homo sapiens), Q9UKT9 (parent)
chain: MEDIQTNAELKSTQEQSVPAESAAVLNDYSLTKSHEMENVDSGEGPANEDEDIGDDSMKVKDEYSERDENVLKSEPMGNAEEPEIPYSYSREYNEYENIKLERHVVSFDSSRPTSGKMNCDVCGLSCISFNVLMVHKRSHTGERPFQCNQCGASFTQKGNLLRHIKLHTGEKPFKCHLCNYACQRRDALTGHLRTHSVEKPYKCEFCGRSYKQRSSLEEHKERCRTFLQSTDPGDTASAEARHIKAEMGSERALVLDRLASNVAKRKSSMPQKFIGEKRHCFDVNYNSSYMYEKESELIQTRMMDQAINNAISYLGAEALRPLVQTPPAPTSEMVPVISSMYPIALTRAEMSNGAPQELEKKSIHLPEKSVPSERGLSPNNSGHDSTDTDSNHEERQNHIYQQNHMVLSRARNGMPLLKEVPRSYELLKPPPICPRDSVKVINKEGEVMDVYRCDHCRVLFLDYVMFTIHMGCHGFRDPFECNMCGYRSHDRYEFSSHIARGEHRALLK
B2: DNA-binding protein Ikaros (Homo sapiens), Q13422-1 (parent)
chain: MDADEGQDMSQVSGKESPPVSDTPDEGDEPMPIPEDLSTTSGGQQSSKSDRVVASNVKVETQSDEENGRACEMNGEECAEDLRMLDASGEKMNGSHRDQGSSALSGVGGIRLPNGKLKCDICGIICIGPNVLMVHKRSHTGERPFQCNQCGASFTQKGNLLRHIKLHSGEKPFKCHLCNYACRRRDALTGHLRTHSVGKPHKCGYCGRSYKQRSSLEEHKERCHNYLESMGLPGTLYPVIKEETNHSEMAEDLCKIGSERSLVLDRLASNVAKRKSSMPQKFLGDKGLSDTPYDSSASYEKENEMMKSHVMDQAINNAINYLGAESLRPLVQTPPGGSEVVPVISPMYQLHKPLAEGTPRSNHSAQDSAVENLLLLSKAKLVPSEREASPSNSCQDSTDTESNNEEQRSGLIYLTNHIAPHARNGLSLKEEHRAYDLLRAASENSQDALRVVSTSGEQMKVYKCEHCRVLFLDHVMYTIHMGCHGFRDPFECNMCGYHSQDRYEFSSHITRGEHRFHMS

Variants of: B1
Conditions: with crbn_human CRBN
Q147H was tested, and the “effect of a mutation on the interaction” value was “decreasing interaction strength”.

Variants of: B2
Conditions: with crbn_human CRBN
With Q146H the “effect of a mutation on the interaction” value was “decreasing interaction strength”.
